Data published in patent US20120202890A1, “POLYMER-CARBOHYDRATE-LIPID CONJUGATES” (priority 2011, published 2012).
Ends that are not written are not given here.

Legend:
[1] = Stability of peptide solution by HPLC assay; format: physicochemical
Protocol: Stability experiment was carried out by HPLC assay and a custom synthesized thermolabile peptide with the following sequence was used as the model compound: […] The peptide was added to selected media and sonicated for 10 minutes. The sample solutions were filtered through passed through 0.22-μm pore-size filter to remove dust particles before the HPLC assay. A Simadzu 10avp chromatography system with a Kinetex C18 (2.6 μm, 100×4.6 mm i.d.) column (Phenomenex, Torrance, Calif.) were used. The solutions were kept at 25° C. in the Autosampler during the assay and the mobile phase consisted of 0.1% of trifluoroacetic acid and acetonitrile mixture (v/v, 80/20) with a flow rate of 1.0 mL/min. The peptide peak was monitored at 210 nm and quantitated using external standard sets of the peptide.
The plots were the % recovery vs. time.

[2] = Body weight change as evidence of renal toxicity of cisplatin, intravenous dosing; format: in vivo, mice (B6D2F1); details: animal experiments, mice
Protocol: Groups of four each of mixed gender mice (B6D2F1), […] and weights of 22 to 30 grams) were studied in duplicate. Each mouse was administrated cisplatin intravenously at a dose of 10 mg/kg (Table 16) and Intraperitoneally at a dose of 15 mg/kg (Table 17). The changes in body weights observed can be used as a direct evident in the renal toxicity effects.

[3] = Physical state of Propofol formulations with PEG-carbohydrate-lipid (solution, suspension or emulsion); format: physicochemical
Protocol: A propofol solution suitable for intravenous delivery is prepared as follows. 5% (w/v) of OAPDL-PEG in Saline was added to a vessel equipped with a mixer propeller and 2% (w/v) of Propofol was added with constant mixing at ambient room temperature. Mixing was continued until the drug was visually dispersed. Equal volume of Saline was added to the vessel with adequate mixing. Mixing continued for another 30 minutes or until a homogenous solution was achieved. A sample formulation is described in Table 15.
In Example 16, less concentrated or less purified PEG-sugar-lipid will create a suspension instead of an aqueous solution. For instance, the final concentration of the PEG-carbohydrate-lipid is less than 1.5% (w/v), it will form a suspension. Similarly when the oligomer purity is 80% or less, regardless the concentration of the PEG-carbohydrate-lipid, an emulsified solution will be observed instead of a transparent solution.
Propofol as the active agent was formulated with various polymer-lipid-carbohydrate conjugates described in the present invention. At a lower of the polymer-lipid-carbohydrate conjugate concentration, i.e., OAPDL-11 (<1.5%), the formulation is a microemulsion and at a higher OAPDL-11 concentration (≧2.2%), it is a true solution.
A solution is defined as a homogenous mixture of substances with variable composition. […]

Substance	peptide degradation ([1]; in a 50 mM of phosphate buffer, in 24 hours)	peptide still remaining ([1]; in a 2% of PEG-carbohydrate-lipid, after 24 hours)	intravenous hydration effect for reducing renal toxicity of cisplatin [2]	physical state of Propofol formulation ([3]; higher OAPDL-11 concentration (≧2.2%))	physical state of Propofol formulation ([3]; lower OAPDL-11 concentration (<1.5%))
FPKLSHGCNKHSRKHPYMTF [peptide, custom synthesized thermolabile peptide used as the model compound]	degraded significantly	more than 97%	–	–	–
oleoyi-N-(3-aminopropyl)propane-1,3-diamine-Undecaethylene glycol methyl ether Lactobionate [OAPDL-11]	–	–	better than free sugars	true solution	microemulsion
